Literature values as cited in paper PMC8745080.

What was measured:
His98 [1] = molecular target: His98 (UniProt position 99, SEKFSHEQEVK); test: not stated (the review mentions pH-dependent NMR measurements on cL-BABP in the same section); settings: apo (ligand-free), folded
His98 [2] = molecular target: T1, His98 (UniProt position 99, NFPNYHQTSEI); test: not stated (NMR inferred from the apo data of the same reference); settings: holo (bile-salt-bound; identity of the bound bile salts not given), folded
His98 [3] = molecular target: T1, His98; test: NMR; settings: apo (ligand-free), folded

Substance	pKa (His98 [1])	pKa (His98 [2])	pKa (His98 [3])
Chicken liver bile acid-binding protein (cL-BABP; liver basic fatty acid-binding protein) (Gallus gallus)	4.7	–	–
Human ileal bile acid-binding protein (hI-BABP; gastrotropin, FABP6), common isoform (Homo sapiens)	–	7.0	6.6
